Data from publication PMC12738837, “Structure of Trypanosoma peroxisomal import complex unveils conformational heterogeneity” (Nature Communications, 2025).
Positions count from the first letter of the chain named. Where “and” joins values, the source holds several entries; their conditions need not be identical. Equal values may be shown once.

T1: Pex5_(eTPR)(R625A, D629A) (Trypanosoma cruzi, UniProt Q4DPQ9 316-668, R625A | D629A)
T1 construct: source: E. coli BL21 (DE3), purified as wild type (Ni-NTA, SEC)
T1 sequence: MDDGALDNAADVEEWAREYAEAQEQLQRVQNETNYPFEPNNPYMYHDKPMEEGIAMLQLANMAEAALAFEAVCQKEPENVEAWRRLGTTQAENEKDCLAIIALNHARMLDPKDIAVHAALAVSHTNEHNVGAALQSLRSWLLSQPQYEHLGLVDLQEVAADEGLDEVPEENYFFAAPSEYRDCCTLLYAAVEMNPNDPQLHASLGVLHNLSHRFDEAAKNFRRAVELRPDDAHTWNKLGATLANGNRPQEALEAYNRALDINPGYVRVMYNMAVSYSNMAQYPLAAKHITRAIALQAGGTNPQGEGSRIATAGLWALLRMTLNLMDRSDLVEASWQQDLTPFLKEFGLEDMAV

T2: Pex5_(eTPR)(P490R) (Trypanosoma cruzi, UniProt Q4DPQ9 316-668, P490R)
T2 construct: source: E. coli BL21 (DE3), purified as wild type (Ni-NTA, SEC)
T2 sequence: T1 sequence with P177R, A312R, A316D

B1: full length Pex5 (residues 1–666) (receptor, Trypanosoma cruzi, UniProt Q4DPQ9 1-668, looked up)
chain: MDCSTGAAIGQQFAKDAFHMHGGVGVGPTGNPEHDVLMNEMMMVQTPTGPAGEWTHQFAAYQGKQQQQHPQELAMRHQQNDALMLRQQQEMEEAFCTLCAAHPHSHAHSHAHSHQPQGLVGPAMMGPQIMPPMMFGPGSGGFMMGTPPMMPYASMKFAGDAAMAAANNTTMTQGATATSTTSVQQEQQQQQSSDNGWVEKLRDAEWAQDYSDAQVFTLEGQSEQTMEEHAKNSEFYQFMDKIRSKELLIDEETGQLVQGPGPDPDAPEDAEYLKEWAAAEGLNMPPGFFEHMMQRPQGNNEQAEGRLFDGSNDALMDDGALDNAADVEEWAREYAEAQEQLQRVQNETNYPFEPNNPYMYHDKPMEEGIAMLQLANMAEAALAFEAVCQKEPENVEAWRRLGTTQAENEKDCLAIIALNHARMLDPKDIAVHAALAVSHTNEHNVGAALQSLRSWLLSQPQYEHLGLVDLQEVAADEGLDEVPEENYFFAAPSEYRDCCTLLYAAVEMNPNDPQLHASLGVLHNLSHRFDEAAKNFRRAVELRPDDAHTWNKLGATLANGNRPQEALEAYNRALDINPGYVRVMYNMAVSYSNMAQYPLAAKHITRAIALQAGGTNPQGEGSRIATRGLWDLLRMTLNLMDRSDLVEASWQQDLTPFLKEFGLEDMAV
notes: Pex5, Trypanosoma cruzi, full length, residues 1-666, GenBank PBJ69826.1; Contains three Wxxx(F/Y) motifs; source: E. coli BL21 (DE3), purified (Ni-NTA, SEC)
B2: glycosomal malate dehydrogenase (MDH, residues 1–323) (enzyme, Trypanosoma cruzi, UniProt Q4DRD8 1-323, looked up)
chain: MVNVAVIGAAGGIGQSLSLLLLRELPFGSTLSLYDVVGAPGVAADLSHIDRAGITVKHAAGKLPPVPRDPALTELAEGVDVFVIVAGVPRKPGMTRDDLFNVNAGIVMDLVLTCASVSPNACFCIVTNPVNSTTPIAAQTLRKIGVYNKNKLLGVSLLDGLRATRFINNARHPLVVPYVPVVGGHSDVTIVPLYSQIPGPLPDESTLKEIRKRVQVAGTEVVKAKAGRGSATLSMAEAGARFTMHVVKALMGLDTPMVYAYVDTDGEHECPFLAMPVVLGKNGIERRLPIGPITTVEKEMLEEAVGVVKKNIAKGETFARSKL
notes: glycosomal malate dehydrogenase (MDH), Trypanosoma cruzi, residues 1-323, UniProt Q4DRD8; Tetramer (two dimers related by D2 symmetry) by cryo-EM; also called cargo; MDH tetramer; source: E. coli BL21 (DE3), purified (Ni-NTA, SEC)
B3: PTS1 peptide derived from MDH (NH2-ARSKL-COOH) (peptide)
peptide: H-ARSKL-OH
notes: short peptide encompassing PTS1 of T. cruzi glycosomal MDH, residues 319-ARSKL-323; also called MDH-derived PTS1 peptide

Legend:
[1] = target: B2; assay: cryo-EM structure; ternary complex: purified MDH (tetramer), full-length Pex5 and Pex14NTD mixed at 1:4:12, overnight at 4 °C, separated on Superose6 10/300, vitrified at ~0.75 mg/mL; no cross-linking; MDH alone solved from the same dataset; conditions: both partners purified
[2] = target: 6-FAM labeled PTS1 peptide; assay: fluorescence polarisation
[3] = target: the molecule itself; assay: cryo-EM structure; ternary complex: purified MDH (tetramer), full-length Pex5 and Pex14NTD mixed at 1:4:12, overnight at 4 °C, separated on Superose6 10/300, vitrified at ~0.75 mg/mL; no cross-linking; MDH alone solved from the same dataset
[4] = target: T1, Pex5_(eTPR)(R625A, D629A); assay: ITC; Pex5_(eTPR) (250 μM) injected into MDH (25 μM) in the cell; 100 mM Hepes, 150 mM NaCl, 2 mM β-mercaptoethanol, pH 7.5; 25 °C; conditions: both partners purified
Pex5_(eTPR)(P490R) = target: T2, Pex5_(eTPR)(P490R); assay: as above; conditions: both partners purified
[5] = target: T3, Pex5_(eTPR) (residues 314–666), truncated Pex5 containing an extended TPR domain with a single Wxxx(F/Y) motif (Trypanosoma cruzi, UniProt Q4DPQ9 316-668); assay: as above; conditions: both partners purified
[6] = target: T3, Pex5_(eTPR) (residues 314–666), …; assay: ITC; Pex5_(eTPR) with the PTS1 peptide (NH2-ARSKL-COOH); who was in the cell is not stated for the peptide; 25 °C; conditions: both partners purified

Binder: B1
- stoichiometry N [1]: 1 Pex5 per MDH tetramer and 2 Pex5 per MDH tetramer
- Kd [2]: 88 nM

Binder: B2
- stoichiometry N [3]: 4
- Kd [4]: 453 ± 64 nM
- Kd (Pex5_(eTPR)(P490R)): 1390 ± 226 nM
- Kd [5]: 435 ± 80 nM

Binder: B3
- Kd [6]: 135 ± 19 nM
